Measurements published in patent US20210347914A1 (BANYAN BIOMARKERS, published 2021).

Target: T1, Polyhistidine-tagged recombinant human GFAP expressed from E. coli (human, UniProt P14136 1-432)
T1 construct: also called His-tagged GFAP; not shown: polyhistidine tag
Experiment: BLI (Octet QKe); His-tagged GFAP on anti-Penta-HIS sensor, antibody in solution
Description: The rates of association (kₒₙ) and dissociation (koff) of the anti-GFAP antibodies were determined by bio-layer interferometry using an Octet QK^e instrument according to the manufacturer's instructions (ForteBio). See Tobias et al., Biomolecular Binding Kinetic Assays in the Octet Platform, Application Note 14, ForteBio, Div. of Pall Life Sciences, 2013. Polyhistidine-tagged recombinant human GFAP expressed from E. coli was used as the antigen. The antigen was bound at a concentration of 8.3 μg/ml to an anti-Penta-HIS(HIS1K) capture biosensor containing an anti-histidine antibody (ForteBio) for use with the Octet QK^e instrument.

T1 sequence (P14136 whole entry): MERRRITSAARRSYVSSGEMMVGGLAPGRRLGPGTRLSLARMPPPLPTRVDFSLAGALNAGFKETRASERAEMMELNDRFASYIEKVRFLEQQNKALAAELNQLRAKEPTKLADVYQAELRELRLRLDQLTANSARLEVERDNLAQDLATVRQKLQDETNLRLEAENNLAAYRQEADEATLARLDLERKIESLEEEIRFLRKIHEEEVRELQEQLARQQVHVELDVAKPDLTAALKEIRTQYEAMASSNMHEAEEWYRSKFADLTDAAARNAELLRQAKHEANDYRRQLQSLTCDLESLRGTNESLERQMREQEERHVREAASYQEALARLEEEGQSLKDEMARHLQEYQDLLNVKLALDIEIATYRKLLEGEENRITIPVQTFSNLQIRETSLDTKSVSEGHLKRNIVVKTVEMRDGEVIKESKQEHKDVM

Row | Binder | Kd | koff | kon
1 | GFAP-13 (antibody, V domains shown, also called mouse anti-GFAP antibody GFAP-13) VH: EVLLQQSGPELVKPGASVKMSCKTSGYTFANYIMHWVKQTPGQGLEWIGFINPYNDYTEYNEKFKGKATLTSDKSSSTAYMEFSGLTSEDSAVYYCSTATFAYWGQGTLVTVSA VL: not shown | 0.6 nM | 0.000194 s⁻¹ | 324000 M⁻¹ s⁻¹
2 | GFAP-16 (antibody, V domains shown, also called mouse anti-GFAP antibody GFAP-16) VH: QVQLQQSDAELVKPGASVKISCKASGYTFTDHTIHWVKQRPEQGLEWIGYIYPGDGSTKYNEKFKGKATLTADKSSSTVYMQLNSLTSEDSAVYFCARPAPYWNFDVWGAGTTVTVSS VL: DIQMTQSPSSLSASLGGKVTITCKASQDIKKNIAWYQHKPGKGPRLLIWYTSTLQPGIPSRFSGSGSGRDYSFSISNLEPEDIATYYCLQYDHLRTFGGGTKLEIK | 0.273 nM | 4.7e-05 s⁻¹ | 173000 M⁻¹ s⁻¹
3 | GFAP-12 (antibody, V domains shown, also called mouse anti-GFAP antibody GFAP-12) VH: QVQLQQSGAELMKPGASVKISCKATGYTFSNYWIEWVKQRPGHGLEWIGEILPGSGSTNYNEKFKGKATFTADTSSNTAYMQLSSLTSEDSAVYYCAIYYGNYAGAMDYWGQGTSVTVSS VL: DIQMTQSPASLSASVGETVTITCRASENIYSYLAWYQQKQGKSPQLLVYNAKTLAEGVPSRFSGSGSGTQFSLKINSLQPEDFGSYYCQLHYGTPYTFGSGTKLEIK | 13.3 nM | 0.00024 s⁻¹ | 18000 M⁻¹ s⁻¹
4 | GFAP-14 (antibody, V domains shown, also called mouse anti-GFAP antibody GFAP-14) VH: DVQLVESGGGSVQPGGSRKLSCAASGFTFSSFGMHWVRQAPEKGLEWVAYISSDSNTVYYADTVKGRFTISRDNPKNTLFLQMTSLRSEDTAMYYCARYAMDYWGQGTSVTVSS VL: QIVLTQSPALMSASPGEKVTMTCSASSSVSYMYWYQQKPRSSPKPWIYLTSNLASGVPARFSGSGSGTSYSLTISSMEAEDAATYYCQQWSSNPPTFGAGTKLELK | 0.28 nM | 8.4e-05 s⁻¹ | 299000 M⁻¹ s⁻¹
5 | GFAP-15 (antibody, V domains shown, also called mouse anti-GFAP antibody GFAP-15) VH: DVQLVESGGGLLEPGGSRKLSCAASGFTFSSFGMHWVRQAPEKGLEWVAYISSGSRTIFYADTVKGRFTISRDNPKNTLFLQMTSLRSGDTAMYYCVRGGYGSSFDYWGQGTTLTVSS VL: DVVMTQTPLSLPVSLGDQASISCRSSQSLVYSNGNIYLHWYLQKPGQSPKLLIYKVSNRFSGVPDRFSGSGSGTDFTLKISRVEAEDLGVYFCSQSTHVPYTFGGGTKLEIK | 0.202 nM | 0.000231 s⁻¹ | 1.15e+06 M⁻¹ s⁻¹
6 | GFAP-11 (antibody, V domains shown, also called mouse anti-GFAP antibody GFAP-11) VH: QIQLVQSGPELKKPGETVKISCKASGYTFTNYGMNWVKQAPGEGLKWMGWINTNIGEPTYAEEFKGRFAFSLEASASTAYLQINNLKNEDTATYFCARWKNYGYFDYWGQGTTLTVSS VL: QIVLTQSPAIMSASLGERVTMTCTASSSVSSSYLHWYQQKPGSSPKLWIYSTSNLASGVPARFSGSGSGTSYSLTISSLEAEDAATYYCHQYHRSPYTFGGGTKLEIK | 0.396 nM | 0.000125 s⁻¹ | 315000 M⁻¹ s⁻¹

Next, values leading:

Row | Kd | koff | kon | Binder
7 | 0.0737 nM | 2.5e-05 s⁻¹ | 344000 M⁻¹ s⁻¹ | GFAP-18 (antibody, V domains shown, also called mouse anti-GFAP antibody GFAP-18) VH: EVILVESGGGLVKPGGSLKVSCAVSGFTFSNFAMSWVRQTPEKRLEWVASISSGGTTYYPDNVKGRFTISRDNARNIMYLQMSSLRSEDTAMYFCARGGLHYFGYWGQGTTLTVSS VL: DIVMTQSHKFMSTSVGDRVSITCKASQDVNTAVAWYQQKPGQSLKLLIYSASYRYIGVPDRFTGSGSGTDFTFTINSVQAEDLAVYYCHQYYSTPLTFGTGTKLELK
8 | 0.208 nM | 1.8e-05 s⁻¹ | 86600 M⁻¹ s⁻¹ | GFAP-17 (antibody, V domains shown, also called mouse anti-GFAP antibody GFAP-17) VH: EVKLEESGGGLVQPGGSMKLSCVASGFTFSYYWMSWVRQSPEKGLEWIAEIRLKSNIYATHYAASVKGRFTISRDDSKSSVYLQMNNLRAEDTGIYFCTRFGTGAMDYWGQGTSVTVSS VL: DIVMSQSPSSLAVSVGEKVTMSCKSSQSLLYRTNQKNYLAWYQQKPGQSPKLLIYWASSRESGVPDRFSGSGSGTDFTLTISSVKAEDLAVYYCQQYYSYPWTFGGGTKLEIK
